The target of the data set is Smc5 (E1015Q);Smc6 (E1048Q);Nse1;Nse2;Nse3;Nse4 (Saccharomyces cerevisiae;Saccharomyces …, UniProt Q08204;Q12749;Q07913;P38632;Q05541;P43124 1-1093;1-1114;1-336;1-267;1-303;1-402, E1015Q|E1048Q||||). The data set is described as follows: cryo-EM structure (3.8 A); 1 mM ATP, 2 mM MgCl2; 0.3 mg/mL complex, 1.5 uM DNA; Cryo-EM sample: 1 mM ATP, 2 mM MgCl2, 1.5 uM dsDNA, 4 C, 2 h; complex from size exclusion in 25 mM Hepes pH 7.5, 250 mM NaCl, 1 mM DTT (final binding buffer not stated). Conditions: protein: recombinant;recombinant;recombinant;recombinant;recombinant;recombinant; copies: 1;1;1;1;1;1; blunt. On the technique in general: SEC sorts molecules by how far they enter the pores of the column.

B1: cryo-EM dsDNA (dsDNA)
DNA 1: TGGTTTTTATATGTTTTGTTATGTATTGTTTATTTTCCCTTTAATTTTAGGATATGAAAACAAGAATTTATC
DNA 2: GATAAATTCTTGTTTTCATATCCTAAAATTAAAGGGAAAATAAACAATACATAACAAAACATATAAAAACCA
On to B1, for which the binding result is listed as “binds”.

The values above are taken from publication PMC9191643, “Cryo-EM structure of DNA-bound Smc5/6 reveals DNA clamping enabled by multi-subunit conformational changes”.
